Reference: US20050153894

Legend:
[1] = target: cyclin D1 (human), P24385; experiment: competition; conditions: modification not given
cyclin A (human), P20248 = experiment: competition; conditions: modification not given
cyclin A (human), P20248, sequence (P20248 whole entry): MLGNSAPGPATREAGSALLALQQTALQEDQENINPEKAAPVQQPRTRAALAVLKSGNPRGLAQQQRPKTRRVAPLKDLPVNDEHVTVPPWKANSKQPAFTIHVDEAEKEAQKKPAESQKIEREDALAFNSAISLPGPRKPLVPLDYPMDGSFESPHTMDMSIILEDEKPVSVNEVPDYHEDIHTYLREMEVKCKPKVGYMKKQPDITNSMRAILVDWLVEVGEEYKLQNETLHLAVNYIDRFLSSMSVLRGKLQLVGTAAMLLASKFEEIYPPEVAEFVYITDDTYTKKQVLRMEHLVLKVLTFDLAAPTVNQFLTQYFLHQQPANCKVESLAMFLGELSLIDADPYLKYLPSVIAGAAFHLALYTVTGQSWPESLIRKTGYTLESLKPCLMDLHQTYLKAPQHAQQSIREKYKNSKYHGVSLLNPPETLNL

cyclin D1 (human), P24385, sequence (P24385 whole entry): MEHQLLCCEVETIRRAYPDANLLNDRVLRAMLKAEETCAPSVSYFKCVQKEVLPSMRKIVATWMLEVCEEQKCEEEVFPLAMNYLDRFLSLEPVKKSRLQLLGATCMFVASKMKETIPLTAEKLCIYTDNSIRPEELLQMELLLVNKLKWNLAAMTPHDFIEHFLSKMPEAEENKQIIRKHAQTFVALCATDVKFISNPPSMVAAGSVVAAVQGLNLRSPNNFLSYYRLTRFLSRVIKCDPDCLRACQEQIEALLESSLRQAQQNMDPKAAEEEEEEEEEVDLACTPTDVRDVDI

| Binder | IC50 [1] [µM] | IC50 (cyclin A (human), P20248) [µM] |
| --- | --- | --- |
| PVKRRLDL [E2F1 PVKRRLDL] | > 100 |  |
| RRLNF [Ac-RRLNF-NH2] |  | 8.15 |

Continued, values first:

| IC50 [1] [µM] | IC50 (cyclin A (human), P20248) [µM] | Binder |
| --- | --- | --- |
| > 200 |  | HSKRRLDL |
| > 200 |  | HSKRRLFG |
